The results in this text go back to the supplement of paper PMC9170038.

The data set relates to MS2 coat protein. The data set is described as follows: apparent KD of MS2 coat protein; designed switch direction (-1 OFF switch, 1 ON switch): -1; higher = weaker reporter binding. The method in brief: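 On Illumina chips, designed RNA switches with common flanks were made by stalled E. coli RNA polymerase. Titrations with SNAP-549-labelled MS2 coat protein, doubling from 0.7 or 1.5 nM to 3 µM, were done with no input, with 200 uM small-molecule ligand, or with an oligonucleotide input. Apparent KD is the median per design over clusters, from curve fits of normalised cluster fluorescence.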

[1] abbreviates: input ligand: microRNA oligo, concentration not stated.
Where [2] appears, read: Eterna round: R95, input ligand: FMN 200 uM.
Where [3] appears, read: Eterna round: R95, input ligand: microRNA oligo, concentration not stated.
[4] abbreviates: Eterna round: R95, input ligand: none.

Regarding “UUUUUAGAUGAAGGAUAUACUUAACAUGAGGAUCACCCAUGUGGUGUUGUGAGUGAGUGAGUUUAGUAGAAGGUCAAUGAUUUU [JMF's solution 66] (Eterna round: R96, puzzle: Exclusion NG 2)”, the “apparent KD of MS2 coat protein” value came out at 937 nM (input ligand: FMN 200 uM), 246 nM under setting [1] and 377 nM (input ligand: none).
On to “UUUUUAGUGCUUUUUAAGUACAUGAGGAUCACCCAUGUACUUGUCUGGUGGUCCGGACAAGCUUUUUGCUCGUCUAA [Sensor v3 - turn-off variant 1 - 1] (puzzle: Sensor v3, turn-off variant 1)”, for which the “apparent KD of MS2 coat protein” value is, setting by setting: under setting [2], 48.9 nM; under setting [3], 33 nM; under setting [4], 59.7 nM.
“UUUUUAUAACAAGGAUAUACUAAACAUGAGGAUCACCCAUGUAAUAUUAUGAGUGAGAGAGAGAAGUAGAAGGUGUAUUAUUUU [JMF solution 2] (Eterna round: R96, puzzle: Exclusion NG 2)”: the “apparent KD of MS2 coat protein” value under setting [1] came to 82.4 nM.
On to “UUUUUAUAUGAAGGAUAUACUUAACAUGAGGAUCACCCAUGUGGUGUUGUGAGUGAGUGAGUUUAGUAGAAGGUCAAGUAUUCU [JMF's solution 40] (Eterna round: R96, puzzle: Exclusion NG 2)”, for which the “apparent KD of MS2 coat protein” value is 575 nM (input ligand: FMN 200 uM), 306 nM under setting [1] and 496 nM (input ligand: none).
In the same order, the values of “UUUUUAUAUGAAGGAUAUACUUAACAUGAGGAUCACCCAUGUGGUGUUGUGAGUGAGUGAGUUUAGUAGAAGGUCAAGUAUUUA [JMF's solution 41] (Eterna round: R96, puzzle: Exclusion NG 2)” are 663 nM, 527 nM and 380 nM.
Consider “UUUUUAUAUGAAGGAUAUACUUAACAUGAGGAUCACCCAUGUGGUGUUGUGAGUGAGUGAGUUUAGUAGAAGGUCAAUUAGUAU [JMF's solution 101] (Eterna round: R96, puzzle: Exclusion NG 2)”, for which the “apparent KD of MS2 coat protein” value is 1110 nM (input ligand: FMN 200 uM), 253 nM under setting [1] and 295 nM (input ligand: none).
Turning to “UUUUUAUAUGAAGGAUAUACUUAACAUGAGGAUCACCCAUGUGGUGUUGUGAGUGAGUGAGUUUAGUAGAAGGUCAAUUAUUUU [JMF's solution 6] (Eterna round: R96, puzzle: Exclusion NG 2)”, the “apparent KD of MS2 coat protein” value runs as follows: (input ligand: FMN 200 uM) 915 nM; under setting [1], 246 nM; (input ligand: none) 261 nM.
Turning to “UUUUUCAAGCCAGAUCCUCACAUGAGGAUCACCCAUGUGCUCGUCUGUUUUCGCACUAUCACGUUUGUGAUAGUGCU [Level Boss var2-11] (puzzle: Sensor v3, turn-off variant 1)”, the “apparent KD of MS2 coat protein” value worked out at 297 nM under setting [2], 17.7 nM under setting [3] and 307 nM under setting [4].
For the sequence “UUUUUGGUAGGAUAUACAUGAGGAUCACCCAUGUCCCACCCGUUACCUAUGACCAUAUGUAGAAGGACCAUUUC [Exy#11] (Eterna round: R97, puzzle: Exclusion 3)”, the “apparent KD of MS2 coat protein” value (input ligand: FMN 200 uM) was found to be 24.6 nM and the “apparent KD of MS2 coat protein” value (input ligand: none) was 21.3 nM.
As to “UUUUUGUAUGAAGGAUAUACUUAACAUGAGGAUCACCCAUGUGGUGUUGUGAGUGAGUGAGUUUAGUAGAAGGUCAAUUCUUUU [JMF's solution 88] (Eterna round: R96, puzzle: Exclusion NG 2)”, the “apparent KD of MS2 coat protein” value by setting is: (input ligand: FMN 200 uM) 604 nM; under setting [1], 275 nM; (input ligand: none) 454 nM.
Take “UUUUUGUGAGGAUAUCAGUAGUAAAUAAAUAAAAUUACUACUGAGAAGGCACAUGAGGAUCACCCAUGUUCCUU [salish99_ex3_r3_090] (puzzle: Exclusion 4)”: the “apparent KD of MS2 coat protein” value under setting [3] was found to be 14 nM.
The same measure, in the same setting: under “UUUUUGUGAGGAUAUCAGUAGUAGAACAAUAGUACUACUACUGAGAAGGCACAUGAGGAUCACCCAUGUUCUUC [Fiskers Ex 4 Super stable 44 mod 11] (puzzle: Exclusion 4)” stands 27.1 nM; under “UUUUUUGUUGUGAGGAUAUCGUAUUUUUUUUGUUACGAGAAGGCACAUGAGGAUCACCCAUGUUUUUUGAUGUU [JR_BMOE4_Sub065] (puzzle: Brourd's mod of Exclusion 4)”, 28.4 nM.
